Experiment [1] has as its target full length human TpoR (wild type), expressed on transduced cells (human) (UniProt P40238). In words: cell-based or functional assay.
Experiment [2] has as its target mutant truncated (mt) TpoR, lacking the final five amino acids (human) (UniProt P40238). In words: cell-based or functional assay.

Take “recombinant human Tpo (Miltenyi Biotec) (from UniProt P40225 22-195) (ligand)”: the enrichment of TpoR positive primary human T-cells (from 20% transduced) in the presence of Tpo (% TpoR positive) in experiment [1] was 87.5; in experiment [2] it was 77.9.

Values taken from US20230212511A1.
